Experimental data from patent US6617118B2, “Monoclonal antibody for analysis and clearance of polyethylene glycol and polyethylene glycol-modified molecules” (priority 1999, dated 2003).

Tests used:
[1] = βG enzymatic activity of PEG-modified βG and conjugates; type: biochemical; conditions: purified by gel filtration, 9.2 sPEG groups/βG subunit
[2] = 150 μg i.v., after a period of rapid clearance
Protocol: Pharmacokinetics of βG-pPEG: Male BALB/c mice were i.v injected with 150 μg βG-pPEG. Serum was isolated from blood samples that were periodically removed from the tail vein of the mice. The concentration of βG-pPEG in serially-diluted serum samples was assayed in triplicate by the AGP3 ELISA. The concentration of βG-pPEG was determined by comparison to a standard curve generated with known concentrations of βG-pPEG.
A sandwich ELISA was developed in which AGP3 was employed for the capture step and AGP3-biotin used for detection. […] Binding of βG-pPEG to the immobilized AGP3 was detected by sequential addition of AGP3-biotin and streptavidin-HRP. Results represent mean values of triplicate determinations. Bars indicate the standard error of the mean. […] The effect of serum on the ELISA was examined by adding 10% mouse serum to samples before assay. […] The AGP3 ELISA was employed to measure the pharmacokinetics of βG-pPEG in mice. In FIG. 7, a BALB/c mouse was i.v. injected with 150 μg βG-pPEG. Blood samples were periodically removed from the tail vein and assayed for βG-pPEG concentration by ELISA.

[3] = pH values less than 5.0 or greater than 9.0; 4 h at 37° C., assay at pH 7.0
Protocol: To test the pH stability of βG, enzyme in βG buffer was adjusted to pH values ranging from 3-11 for 4 h at 37° C. before neutralization to pH 7.0 and assay of enzymatic activity.

immobilized AGP3 = test: AGP3 sandwich ELISA (AGP3 capture, AGP3-biotin detection); type: binding; conditions: unmodified protein in PBS
Protocol: AGP3 ELISA: Maxisorp™ 96-well microplates (Nunc™, Roskilde, Denmark) were coated with 50 μL/well of AGP3 (200 μg/ml in PBS) for 3 h at 37° C. Plates were blocked with 2% skim milk in PBS overnight and washed twice with PBS/T (0.05% Tween-20 in PBS) before serial dilutions of βG or βG-pPEG (50 μL in dilution buffer) were added to wells for 1.5 h at room temperature. Plates were washed 6 times with PBS/T and 50 μL/well AGP3-biotin (20 μg/ml in dilution buffer) was added for 1.5 h at room temperature. Plates were again washed with PBS/T and 50 μL/well streptavidin-HRP (1:1000) was added for 1 h at room temperature. Plates were washed before 100 μL/well ABTS substrate was added for 30 min at room temperature. Absorbance (405 nm) of wells was measured in a microtiter plate reader. The effect of serum on the AGP3 ELISA was examined by performing the assay in the presence of 10% serum isolated from healthy BALB/c mice.
A sandwich ELISA was developed in which AGP3 was employed for the capture step and AGP3-biotin used for detection. In FIG. 6, serial dilutions of βG-pPEG in PBS (◯) or 10% mouse serum (□) as well as βG in PBS (Δ) were incubated in a microtiter plate coated with AGP3. Binding of βG-pPEG to the immobilized AGP3 was detected by sequential addition of AGP3-biotin and streptavidin-HRP. Results represent mean values of triplicate determinations. […]

B1: βG-sPEG: β-glucuronidase modified with sPEG (conjugate, UniProt P05804 1-603, looked up)
Beta-glucuronidase: MLRPVETPTREIKKLDGLWAFSLDRENCGIDQRWWESALQESRAIAVPGSFNDQFADADIRNYAGNVWYQREVFIPKGWAGQRIVLRFDAVTHYGKVWVNNQEVMEHQGGYTPFEADVTPYVIAGKSVRITVCVNNELNWQTIPPGMVITDENGKKKQSYFHDFFNYAGIHRSVMLYTTPNTWVDDITVVTHVAQDCNHASVDWQVVANGDVSVELRDADQQVVATGQGTSGTLQVVNPHLWQPGEGYLYELCVTAKSQTECDIYPLRVGIRSVAVKGEQFLINHKPFYFTGFGRHEDADLRGKGFDNVLMVHDHALMDWIGANSYRTSHYPYAEEMLDWADEHGIVVIDETAAVGFNLSLGIGFEAGNKPKELYSEEAVNGETQQAHLQAIKELIARDKNHPSVVMWSIANEPDTRPQGAREYFAPLAEATRKLDPTRPITCVNVMFCDAHTDTISDLFDVLCLNRYYGWYVQSGDLETAEKVLEKELLAWQEKLHQPIIITEYGVDTLAGLHSMYTDMWSEEYQCAWLDMYHRVFDRVSAVVGEQVWNFADFATSQGILRVGGNKKGIFTRDRKPKSAAFLLQKRWTGMNFGEKPQQGGKQ
modifications: sPEG modified
original enzymatic activity possessed [1]: 69%

B2: βG-pPEG: β-glucuronidase modified with pPEG (conjugate, UniProt P05804 1-603, looked up)
Beta-glucuronidase: MLRPVETPTREIKKLDGLWAFSLDRENCGIDQRWWESALQESRAIAVPGSFNDQFADADIRNYAGNVWYQREVFIPKGWAGQRIVLRFDAVTHYGKVWVNNQEVMEHQGGYTPFEADVTPYVIAGKSVRITVCVNNELNWQTIPPGMVITDENGKKKQSYFHDFFNYAGIHRSVMLYTTPNTWVDDITVVTHVAQDCNHASVDWQVVANGDVSVELRDADQQVVATGQGTSGTLQVVNPHLWQPGEGYLYELCVTAKSQTECDIYPLRVGIRSVAVKGEQFLINHKPFYFTGFGRHEDADLRGKGFDNVLMVHDHALMDWIGANSYRTSHYPYAEEMLDWADEHGIVVIDETAAVGFNLSLGIGFEAGNKPKELYSEEAVNGETQQAHLQAIKELIARDKNHPSVVMWSIANEPDTRPQGAREYFAPLAEATRKLDPTRPITCVNVMFCDAHTDTISDLFDVLCLNRYYGWYVQSGDLETAEKVLEKELLAWQEKLHQPIIITEYGVDTLAGLHSMYTDMWSEEYQCAWLDMYHRVFDRVSAVVGEQVWNFADFATSQGILRVGGNKKGIFTRDRKPKSAAFLLQKRWTGMNFGEKPQQGGKQ
modifications: pPEG modified
first-order half-life of elimination from the circulation [2]: 19.2 h

B3: Eschericia coli β-glucuronidase (protein, UniProt P05804 1-603, looked up)
Beta-glucuronidase: MLRPVETPTREIKKLDGLWAFSLDRENCGIDQRWWESALQESRAIAVPGSFNDQFADADIRNYAGNVWYQREVFIPKGWAGQRIVLRFDAVTHYGKVWVNNQEVMEHQGGYTPFEADVTPYVIAGKSVRITVCVNNELNWQTIPPGMVITDENGKKKQSYFHDFFNYAGIHRSVMLYTTPNTWVDDITVVTHVAQDCNHASVDWQVVANGDVSVELRDADQQVVATGQGTSGTLQVVNPHLWQPGEGYLYELCVTAKSQTECDIYPLRVGIRSVAVKGEQFLINHKPFYFTGFGRHEDADLRGKGFDNVLMVHDHALMDWIGANSYRTSHYPYAEEMLDWADEHGIVVIDETAAVGFNLSLGIGFEAGNKPKELYSEEAVNGETQQAHLQAIKELIARDKNHPSVVMWSIANEPDTRPQGAREYFAPLAEATRKLDPTRPITCVNVMFCDAHTDTISDLFDVLCLNRYYGWYVQSGDLETAEKVLEKELLAWQEKLHQPIIITEYGVDTLAGLHSMYTDMWSEEYQCAWLDMYHRVFDRVSAVVGEQVWNFADFATSQGILRVGGNKKGIFTRDRKPKSAAFLLQKRWTGMNFGEKPQQGGKQ
notes: recombinant Eschericia coli-derived β-glucuronidase
pH stability of enzymatic activity [3]: irreversibly deactivated | signal in AGP3 sandwich ELISA (immobilized AGP3): lack of signal
